PMC8219681, “Inhibition of MRN activity by a telomere protein motif” (Nature Communications, 2021)
Where a chain is given by its changes, count along the chain named. Names may count otherwise.

T1: Rad50 (S. cerevisiae, FLAG-tagged at the C terminus) (S. cerevisiae, UniProt P12753 1-1312)
T1 construct: Rad50, Saccharomyces cerevisiae
T1 sequence (looked up): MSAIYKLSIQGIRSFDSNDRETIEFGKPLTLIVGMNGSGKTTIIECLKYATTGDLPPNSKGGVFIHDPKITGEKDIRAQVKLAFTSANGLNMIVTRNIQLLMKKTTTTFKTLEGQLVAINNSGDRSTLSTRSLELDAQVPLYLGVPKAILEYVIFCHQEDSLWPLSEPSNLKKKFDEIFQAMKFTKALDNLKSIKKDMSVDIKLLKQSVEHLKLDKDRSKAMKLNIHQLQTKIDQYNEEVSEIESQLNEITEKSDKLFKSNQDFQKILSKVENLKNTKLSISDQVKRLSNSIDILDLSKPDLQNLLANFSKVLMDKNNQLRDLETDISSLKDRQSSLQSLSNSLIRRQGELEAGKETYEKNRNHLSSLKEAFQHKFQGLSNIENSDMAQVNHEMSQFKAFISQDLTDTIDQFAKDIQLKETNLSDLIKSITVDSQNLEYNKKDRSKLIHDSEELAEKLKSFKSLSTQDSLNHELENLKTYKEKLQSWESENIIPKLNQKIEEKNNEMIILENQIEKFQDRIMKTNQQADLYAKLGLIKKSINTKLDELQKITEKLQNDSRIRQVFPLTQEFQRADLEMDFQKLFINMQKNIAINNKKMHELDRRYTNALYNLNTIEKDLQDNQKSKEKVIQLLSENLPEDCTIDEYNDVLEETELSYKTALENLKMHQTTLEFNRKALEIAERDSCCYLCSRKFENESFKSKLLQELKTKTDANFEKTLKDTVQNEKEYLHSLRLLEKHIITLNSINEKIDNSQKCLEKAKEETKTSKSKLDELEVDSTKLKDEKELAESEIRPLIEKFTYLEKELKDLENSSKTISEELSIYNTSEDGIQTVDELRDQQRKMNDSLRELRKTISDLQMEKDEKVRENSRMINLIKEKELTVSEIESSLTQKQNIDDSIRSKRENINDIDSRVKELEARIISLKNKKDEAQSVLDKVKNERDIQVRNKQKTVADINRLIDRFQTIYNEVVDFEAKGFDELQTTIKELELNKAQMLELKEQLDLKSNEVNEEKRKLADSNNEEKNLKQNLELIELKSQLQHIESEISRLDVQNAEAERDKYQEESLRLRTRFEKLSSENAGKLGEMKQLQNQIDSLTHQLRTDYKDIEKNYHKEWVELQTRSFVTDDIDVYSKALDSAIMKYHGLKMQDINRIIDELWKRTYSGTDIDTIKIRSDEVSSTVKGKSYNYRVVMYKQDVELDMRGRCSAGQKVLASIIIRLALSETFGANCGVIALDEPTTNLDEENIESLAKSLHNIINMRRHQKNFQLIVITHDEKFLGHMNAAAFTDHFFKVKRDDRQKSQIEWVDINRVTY

T2: Xrs2 (S. cerevisiae, FLAG-tagged at the C terminus) (S. cerevisiae, UniProt P33301 1-854)
T2 construct: Xrs2, Saccharomyces cerevisiae; also called Xrs2-FLAG; not shown: FLAG, C-terminal, kept
T2 sequence (looked up): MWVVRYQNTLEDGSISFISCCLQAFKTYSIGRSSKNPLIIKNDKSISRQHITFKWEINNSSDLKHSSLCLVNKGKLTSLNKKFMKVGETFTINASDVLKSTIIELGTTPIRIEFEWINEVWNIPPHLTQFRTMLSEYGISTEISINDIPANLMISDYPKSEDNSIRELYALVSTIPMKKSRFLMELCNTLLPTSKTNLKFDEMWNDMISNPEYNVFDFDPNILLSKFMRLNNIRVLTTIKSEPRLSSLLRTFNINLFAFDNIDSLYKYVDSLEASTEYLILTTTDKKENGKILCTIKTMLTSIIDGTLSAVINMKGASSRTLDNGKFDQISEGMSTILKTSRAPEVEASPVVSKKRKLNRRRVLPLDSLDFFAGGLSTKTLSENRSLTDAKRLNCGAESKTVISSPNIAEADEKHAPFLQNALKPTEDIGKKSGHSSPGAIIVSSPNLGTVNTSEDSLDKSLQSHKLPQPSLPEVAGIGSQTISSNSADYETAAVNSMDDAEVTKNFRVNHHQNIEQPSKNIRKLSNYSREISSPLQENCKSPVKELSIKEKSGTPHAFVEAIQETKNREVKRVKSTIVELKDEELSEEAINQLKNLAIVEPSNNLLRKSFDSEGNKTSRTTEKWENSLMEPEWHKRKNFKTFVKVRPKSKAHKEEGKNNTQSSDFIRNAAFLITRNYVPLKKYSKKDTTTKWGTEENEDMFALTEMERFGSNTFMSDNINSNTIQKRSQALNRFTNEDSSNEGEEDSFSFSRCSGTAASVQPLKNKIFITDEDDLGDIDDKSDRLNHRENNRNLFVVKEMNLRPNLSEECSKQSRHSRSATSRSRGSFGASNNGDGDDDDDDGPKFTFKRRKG

B1: MBP-Rif2 (S. cerevisiae Rif2, wild type) (natural protein, UniProt Q06208 1-395, looked up)
chain: MEHVDSDFAPIRRSKKVVDSDKIVKAISDDLEQKNFTVLRKLNLVPIKKSVSSPKVCKPSPVKERVDHVFYQKFKSMALQELGTNYLSISYVPSLSKFLSKNLRSMKNCIVFFDKVEHIHQYAGIDRAVSETLSLVDINVVIIEMNDYLMKEGIQSSKSKECIESMGQASYSGQLDFEASEKPSNHTSDLMMMVMRKINNDESIDHIVYFKFEQLDKLSTSTIIEPSKLTEFINVLSVLEKSNNIAFKVLIYSNNVSISSLLSTSLKKKLNTKYTVFEMPILTCAQEQEYLKKMIKFTFDSGSKLLQSYNSLVTCQLNNKESNLAIFFEFLKVFPHPFTYLFNAYTEIIVQSRTFDELLDKIRNRLTIKNYPHSAYNFKKNQRLPLKLTRKVHDR
notes: Rif2, Saccharomyces cerevisiae, full length, expressed from the vector pFB-MBP-Rif2-his; MBP was cleaved with PreScission protease only after elution from the resin; N-terminal place of MBP is read from the construct's name MBP-Rif2-his; also called ScRif2; not shown: MBP, N-terminal, kept
B2: MBP-Rif2-min (S. cerevisiae Rif2 F8E P10N) (natural protein, UniProt Q06208 1-395, looked up)
chain: B1 chain with F8E, P10N
notes: Rif2, Saccharomyces cerevisiae, full length, F8E P10N, expressed from the vector pFB-MBP-Rif2-min-his; MBP was cleaved with PreScission protease only after elution from the resin; N-terminal place of MBP is read from the construct's name; also called mutant Rif2; not shown: MBP, N-terminal, kept

How the values were obtained:
[1] = target: T1, Rad50 (S. cerevisiae, FLAG-tagged at …); experiment: pull-down; MBP-Rif2 or MBP-Rif2-min (~5 ug, from Sf9 lysate) immobilised on amylose resin and washed; 1 ug Mre11, 500 ng Rad50 or 1 ug Xrs2 added for 1 h in 50 mM Tris-HCl pH 7.5, 200 mM NaCl, 0.2% NP40, 2 mM EDTA; eluted with 20 mM maltose; Western blot; conditions: both partners purified
[2] = target: T2, Xrs2 (S. cerevisiae, FLAG-tagged at the …); experiment: as above; conditions: both partners purified

| binding result [1] | binding result [2] | Binder |
| --- | --- | --- |
| binds | binds | B1 |
| binds | binds | B2 |
